Experimental data as given in the DeepSol protein solubility set.

Experiment: soluble on expression in E. coli; label from the status in PepcDB or PDB records

Sequence	soluble on expression in E. coli
MPDEKDKHEGTWLQWPHEYTYGEEYKKEVEPIWVKMASALTEGEKVHIVAYDQEEKERINNLLTDEGLNMEKIDFFIAPTDDVWARDSGPIFVYDSNKNLKILDPAFNGWGKKTPYKNDAQIRKNVSKQSGIERVDWGKFVLEGGAIELDSNGTALLTRSAVTNKNRNPDLSEKEIEKYISDLGVSNFIWLDGVPNLDITDFHIDGFAKFHNKSTIVTMKEDDLAEWGLSNKDMDTLLDAKNASGQKYKYEYLPLSKEKVALENGKTLDYKGSYINYYIGNTVVLVPNYNDPNDKIANDTIQKLYPDRKVVGIDVRELYKNGGMIHCVTQQQPIALKMAGDPLEHHHHHH	soluble
MGSDKIHHHHHHMVVIEFKNVSKHFNLYKNKSYSLKEKFLNKVLNRNKLEVEQLHVLKNASFKIGQGETIGIIGENGTGKSTSLKLVANIIRPNEGQVTVKGKISSLLEVGVGFQPDMTGRENVYLYGSIMGLSKKEIDERYDEIVEFAELENFMDTPVKNYSSGMYMRLGFSVAVTVNPDILLVDEVLAVGDANFQKKCLNKIQAFKEQGKTILFVSHDMSTVRRICDRCIFIRKGGEVIEGSTDRMVGLYMKLLYAKSEEHKKEEQKSEESLADFDFKLHEADEFKDGNREGNKKLEITKLYFSDKEGRPRNFFGTEENIKVNVEFRKNTDIKAAVMAFEIITEEGYKLIYHDCKQDGMLITEMKDTNMVSFSLQNELLLKSKYYFSIALMDENLQEIYDFRHKHYWFTIHEGNIKEDGKVKISCDWML	not soluble
MSGATEMAVSPDGKEVAFILRGDVYVTSVEYKTTKQVTNTPCQERGIDFAPDGRTLVYASERGGLWQLYTSTIVRKDEKQFTYATELKEERLTNSDIASFNPKYSPDGKEIAFLENRTAIRVINLKTKKVRTVMDAQYQYSYSDGDQWFEWSPDSKWILSEFIGIGGWNNKDIVLLNADGKGEMHNLTESGYSDGNAKWVLGGKAMVWFSDRAGYRSHGSWGAQYDAYIMFFDVDALEHHHHHH	not soluble
MIKRNLLVMGLAVLLSACGFQLRGTGTQELSIKELDLSARDAYGTTIKMLKQQLESSGVRVHAGAPYKLVLLSEENSQRTLSYTGGGNSAEYEIGTTLRYEILTHDNLHLLDDKLEVQKVFLHDGNNITGSDQESSETRKEMRRDLIQRMLIRLQLLTPEQLAQLQATAEAKAKAEADALEAARKAEAETPQQSPMELPNQLEHHHHHH	soluble
MLESSLTFLLLPVGFPGEVLVTLARRAREAMPVPSLWLASTDPLEPPIEAYSWERMQFDAEKVNEHIHSVLYDYVREGIRIIGVVDADGYIPGFNFVFGLASTALGVATVYTRRLKTGGNGLYTERLLKEVLHEAGHLLGLDHCSNRECVMSFSRSVEEVDRKAPLFCSSCKAKLVLKYGSRGQLEHHHHHH	soluble
ADQLLRKKRRIFIHSVGAGTINALLDCLLEDEVISQEDMNKVRDENDTVMDKARVLIDLVTGKGPKSCCKFIKHLCEEDPQLASKMGLH	soluble
MGSDKIHHHHHHMDAKTIDNRIRRAFNGIRQAFRGKIARVKAAGGVQQIQVEGLEGETVQDLEHAENFGFTSNPPAGSDCVVVPLGGKTSHGIIVTTTNGAYRITGLAEGETAVYNADGAKMVLKKGRIIEIDCETLNIKAPGGVNIDAPNVGCTAQITAEGQINGNGGMAVKGGSGTSFTGNVQMVGDLDTTGKLTNNGKNVGSDHKHNGDSGGTTSDPL	not soluble
MSLKKIILSIILISNYCYASDCFEITGKAYNIDPLILKAIAWNESKCKSGIKSKTNKNGTYDIGIMQINSSHLDLLSKFNISEDDLLNDACINISVAGYILASNIKSRGNTWDAVGAYNAGYFNTPNAVELRRQYAMKIYKTYNKLKNNEQIIDEGHHHHHH	not soluble
MGSSHHHHHHSSGLVPRGSHMAPTEIKPEDDILGRARVRDTPELEAYYDDLAKIETGALWTVANDIEPWEPTPKSAPVHWKWSDLRREVLRAIDLVRPEDAGRRVVYLRNPQRKDVSAACGWLFSGIQTMKAGERAGAHRHAASALRFIMEGSGAYTIVDGHKVELGANDFVLTPNGTWHEHGILESGTECIWQDGLDIPLTNCLEANFYEVHPNDYQTTDIPLNDSPLTYGGPALLPQLDKWDKPYSPLLKYSWEPTYEALLNYAKASDGSPYDGLILRYTNPQTGGHPMLTMGASMQMLRPGEHTKAHRHTGNVIYNVAKGQGYSIVGGKRFDWSEHDIFCVPAWTWHEHCNTQERDDACLFSFNDFPVMEKLGFWAEQALEDNGGHQIVAD	soluble
MGSDKIHHHHHHSCKQAPDAGVKSSYAVMQIEPTDKELSSSYSATIRGRQDIDIYPQVSGTIEKLCVTEGQKVRRGQLLFIIDQVPYRAALKTATANVEAARAATSTAELTYKSNKELYAQKVVSEFSLKTAENSYLTAKAQLAQAEAQEISARNNLSYTEVKSPSDGVVGALPYRAGALVSANIPYPLTTVSDNSDMYVYFSMTENQLLALTRQYGDMDEALKNMPEVELILNDNSVYQKKGTIESISGVIDRQTGTVVARVVFPNESRLLHSGASGTVVVPSIYKNCIAIPQTATVRMQDKTIVYKVVDGKAVSTLITVAGINDGREYVVLDGLKAGDEIVSEGAGLVREGTQVK	not soluble
GKVNIIVPQYVRCPDICHYETLIMKSLMIKLFQENSLDDVVFVTVEVDPWRGSLEEADMYIKESTASLGFTPPWIWVGGNMEPLETLYKQLGLSVQLDSSTGLIVHTAGFYIVDRNGILLYYVKVEDEGWKNPGKVADVLEYVVNDALSK	not soluble
GPGSMTSEEAVECTDALELVRCPSSNARVVPNRFDEEYIRGRLQEAEKIFEKAKTDVSRGLSKCEDWLGACEAFNEAGGLFASCGHPAEAARAFFHASIITRAFKDEEETTTALSLAVENMQLVEPLLAVNLMQKISETLKKGGFFFQAARCKRDSALLLEDRLGEPERAIELYREAIELYGNRSFMSSFSRGCMERITTLTVELKKYTEASKLFVEETAYAPRGRPKTRQFFLSLLCMLAEGFGDNDRYFDSLYYARKRFHALQEEERDFQHGKENRLVRKIIEANDNGSLTAFDTAVYEYRSSSTYVPDAVFENLIERCRKNLYEHLEQYI	soluble
MYQLEKEPIVGAETFYVDGAANRETKLGKAGYVTNRGRQKVVTLTDTTNQKTELQAIYLALQDSGLEVNIVTDSQYALGIITQWIHNWKKRGWKTADKKPVKNVDLVNQIIEQLIKKEKVYLAWVPAHKGIGGNEQVDKLVSAGIRKVLF	soluble
MKEYKRPDMYDKLLPMERIHIEVFEPFNGEAIEGKYSYVLLCRDYRSSFMWLLPLKSTKFKHLIPVVSSLFLTFARVPIFVTSSTLDKDDLYDICEEIASKYGLRIGLGLKSSARFHTGGILCIQYALNSYKKECLADWGKCLRYGPYRFNRRRNKRTKRKPVQVLLSEVPGHNAKFETKRERVIENTYSRNMFKMAGGKGLIYLEDVNTFALANEADNSCNNNGILHNNNIGNDNFEEEVQKQFDLTEKNYIDEYDDLAHDSSEGEFEPNTLTPEEKPPHNVDEDRIESTGVAAPMQGTEEPEKGDQKESDGASQVDQSVEITRPETSYYQTLESPSTKRQKLDQQGNGDQTRDFGTSMEL	not soluble
MGHHHHHHSHMADVEDGEETCALASHSGSSGSKSGGDKMFSLKKWNAVAMWSWDVECDTCAICRVQVMDACLRCQAENKQEDCVVVWGECNHSFHNCCMSLWVKQNNRCPLCQQDWVVQRIGK	not soluble
MGSDKIHHHHHHMAFNLDALASVVVDDSIKGIPFGARLGIADIANQGWNVLAGDLPLPAAIIRADALAHNSRWMQRFVSERGALIAPHVKTTMCPQIIARQIADGAWGVTVATVQQMRVCRNFGADRIILANQAVGRSELDAITAMVKEPDLDFMMIVDSAVGIEAAAEAVRRNRLDRPLQLLLERGYPGGRTGCRTNDIALALARQIRATPELRLVGIEAFEGLIQTENGSPEQAVGLFMDEIAALFGLCADDGLFESDAPLVTAGGSSHYDIVIDRLAHCTARVVTRSGCYVTHDSGLYRIAHQRLQAKIGEQDGLRRALEIWTYVQSIPEPGLALLTAGRRDCGTDSGFPVPLLLSSAGAYPRDLPPGCEVINLNDQHAYMRFPPDLPLAVGDRVGLGISHPCTTFDKWQIIYLVDSDYRVIEAMKTFF	not soluble
MGARVTRALRNFNVEKRAEREISKRKPSMAPKHPSTRDLLQEHRSQYPEIEEVVSKKDNKLLSLLRDVYVDSKDPVPALPVKVEPRQEPKEFRLPIGNHFDKNITDIPKGKITVVEALTLLNNHKLSPETWTAEKIAQEYYLELKDVNSLLKYFVTFEVKILPPEDRKAIQSK	soluble
